Where no end group is shown, it is not given here.

One molecule from article doi:10.1101/2024.04.22.590536 (bioRxiv, 2024) can be followed below.

For the experiment, the target named is T1, GST-tagged Ifh1 activation domain (AA 703-811) (S. cerevisiae, UniProt P39520 703-811).
T1 sequence (looked up): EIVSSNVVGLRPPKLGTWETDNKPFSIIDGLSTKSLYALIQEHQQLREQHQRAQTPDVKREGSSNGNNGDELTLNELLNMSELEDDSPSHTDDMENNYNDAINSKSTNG
Kind of experiment: fluorescence polarisation. Background: Fluorescence polarisation rises when a labelled molecule tumbles more slowly, as on binding a larger partner.

In general, Kd refers to the free concentration of one partner at which half of the binding sites on the other are occupied at equilibrium, for simple one-to-one binding. NNNSRNNFNNRRGGRGARKGNNTANATNSANTVQKNRNIDVSNLPSLA (peptide, UniProt P39015 226-273, looked up, also: TAMRA label, position not given here) [TAMRA-labelled Stm1-IDR peptide (AA 226-273)] returned a Kd of around 1400 nM.
